Assay results taken from patent US20210371529A1 (Innovent, published 2021).
Positions count from the first letter of the chain named.

Columns and labels:
[1] = target: T1, mouse LAG-3 overexpressed on CHO cells (mouse, UniProt Q61790 24-521); experiment: flow cytometry (MFI) on CHO cells overexpressing mouse LAG-3; value from the EC50 table on the sheet, which has no unit of its own (concentration axis in nM); the curve has no plateau
T1 construct: whole, on cells; also called CHO-mLAG-3 cells; mouse LAG-3 on the cell surface
T1 sequence (looked up): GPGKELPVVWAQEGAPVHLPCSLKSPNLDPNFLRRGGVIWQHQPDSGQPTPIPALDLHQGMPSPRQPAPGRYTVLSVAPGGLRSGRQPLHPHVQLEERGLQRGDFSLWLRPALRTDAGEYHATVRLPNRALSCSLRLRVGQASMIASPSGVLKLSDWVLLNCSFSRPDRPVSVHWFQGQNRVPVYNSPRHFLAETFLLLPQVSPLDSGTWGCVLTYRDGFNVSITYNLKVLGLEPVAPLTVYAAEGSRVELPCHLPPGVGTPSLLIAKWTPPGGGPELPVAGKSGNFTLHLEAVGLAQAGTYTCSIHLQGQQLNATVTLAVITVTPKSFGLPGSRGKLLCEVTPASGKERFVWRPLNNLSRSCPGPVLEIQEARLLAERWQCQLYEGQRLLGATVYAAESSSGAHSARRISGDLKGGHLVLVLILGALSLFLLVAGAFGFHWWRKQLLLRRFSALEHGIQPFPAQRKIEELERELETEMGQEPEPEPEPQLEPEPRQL
Procedure: (§1) The cells were incubated on ice for 30 min. The cells were then washed at least twice prior to addition of a secondary antibody (a PE-labeled goat anti-human IgG antibody, Southern Biotech, final concentration […]) diluted in 1:100, and incubated on ice (protected from light) for 30 minutes. The cells were washed at least twice and analyzed by flow cytometry. The flow cytometry assay was performed on an Accuri C6 system (BD Biosciences), and a concentration-dependent curve was fitted with GraphPad according to the mean fluorescence intensity (MFI).

human LAG-3-His [2] = target: T2, human LAG-3-His (human, UniProt P18627 23-450); experiment: BLI (ForteBio), antibody on AHQ tip, human LAG-3-His 100 nM in solution, univalent
T2 construct: Bought antigen (ArcoBiosystems), 100 nM in solution in the ForteBio assay; also called human LAG-3 antigen (ArcoBiosystems); hLAG-3; not shown: His tag
T2 sequence (looked up): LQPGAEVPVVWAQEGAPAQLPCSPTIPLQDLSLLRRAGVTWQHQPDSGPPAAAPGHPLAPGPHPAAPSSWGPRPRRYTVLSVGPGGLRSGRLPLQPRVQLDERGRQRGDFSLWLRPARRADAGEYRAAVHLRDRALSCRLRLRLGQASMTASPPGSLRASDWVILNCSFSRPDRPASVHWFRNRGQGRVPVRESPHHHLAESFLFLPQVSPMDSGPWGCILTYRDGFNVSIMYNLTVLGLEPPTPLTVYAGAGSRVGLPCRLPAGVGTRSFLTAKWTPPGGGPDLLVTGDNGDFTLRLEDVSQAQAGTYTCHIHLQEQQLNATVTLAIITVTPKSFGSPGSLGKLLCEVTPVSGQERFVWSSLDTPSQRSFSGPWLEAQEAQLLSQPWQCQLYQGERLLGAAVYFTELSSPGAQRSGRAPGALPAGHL
Procedure: (§2) The purified antibody obtained as described above was loaded on-line onto an AHQ sensor (ForteBio) for ForteBio affinity assay. The sensor with the loaded antibody was then exposed to 100 nM of a human LAG-3 antigen (ArcoBiosystems) for 5 minutes before transferring the sensor to the assay buffer for dissociation for 5 minutes for dissociation rate measurement. Kinetic analysis was performed using a 1:1 binding model.

human LAG-3-His [3] = target: T2, human LAG-3-His; experiment: BLI (ForteBio), antibody on AHQ tip, human LAG-3-His 100 nM in solution
Procedure: as §2

[4] = target: T1, mouse LAG-3 overexpressed on CHO cells; experiment: flow cytometry on CHO-mLAG-3 cells, MFI curve
Procedure: as §1

B1: ADI-31851 (antibody, human IgG4 S228P, kappa, F234A L235A, V domains shown)
VH: QLQLQESGPGLVKPSETLSLTCTVSGGSISSPDYYWGWIRQPPGKGLEWIGSIVYSGYTYYNPSLKSRVTISVDTSKNQFSLKLSSVTAADTAVYYCARVRTWDQSFDIWGQGTMVTVSS
VL: DIQMTQSPSSLSASVGDRVTITCQAGQDISNYLNWYQQKPGKAPKLLIYDASNLETGVPSRFSGSGSGTDFTFTISSLQPEDIATYYCQQVLELPPWTFGGGTKVEIKR
notes: IgG4 heavy chain constant region with kappa light chain; expressed in HEK293 cells
B1 showed an EC50 [1] of roughly 12100 nM, a Kd (human LAG-3-His [2]) of 0.606 nM and a koff (human LAG-3-His [3]) of 0.0002 s⁻¹. The kon (human LAG-3-His [3]) was 330000 M⁻¹ s⁻¹.

B2: ADI-31853 (antibody, human IgG4 S228P, kappa, F234A L235A, V domains shown)
VH: B1 VH with S30Y, P32E, D33S, Q105A, S106A
VL: B1 VL with G26S
notes: as for B1
B2 gave an EC50 [4] of 42.3 nM, a Kd (human LAG-3-His [2]) of 0.622 nM and a koff (human LAG-3-His [3]) of 0.0002 s⁻¹. The kon (human LAG-3-His [3]) was 322000 M⁻¹ s⁻¹.
